According to patent US8088892B2, “Inhibitors of proteins from the Rho-GEF family” (Centre National de la Recherche Scientifique (C.N.R.S.), priority 2002, dated 2012):
“Also recorded” adds a separate entry of the source.

Columns and labels:
TrioGEFD1 = biological target: T1, TrioGEFD1 (Homo sapiens, UniProt O75962); assay: In vitro GEF assay on RhoG; format: biochemical; design: key to in vitro GEF assay (inhibition): +++^2 and +^2 represent respectively a full and a partial (see FIG. 3) inhibitory effect; +++^2 and +^2 represent respectively a full and a partial (see FIG. 3) inhibitory effect; −−^2 represents a lack of inhibitory effect; details: for Effect on TrioGEFD1 exchange activity on RhoG: 20-fold molar excess, TrioGEFD1 0.1 μM, RhoG 0.3 μM
T1 construct: TrioGEFD1 (a.a. 1232-1629, 0.1 μM); made in house
Description: To test the specificity of TRIAPα inhibition in vitro, exchange experiments were performed either on RhoA with different RhoA-specific GEFs: Trio GEFD2 (0.4 μM), Kalirin GEFD2 (KalGEFD2, 1.7 μM), p63RhoGEF (Souchet et al., 2002) (0.4 μM) and Lbc (amino acids 172-598; Zheng et al., 1995) (0.4 μM), or on RhoG, with the RhoG-specific GEF domain of Trio (TrioGEFD1, 0.1 μM). Exchange assays were performed with the recombinant GEFs as described in FIG. 2A. Different concentrations of RhoGEFs were used to yield a similar nucleotide exchange efficiency. For each exchange factor, three independent experiments were done in absence (black bar) or in the presence (grey bar) of a 20-fold molar excess of TRIAPα.
An in vitro guanine nucleotide exchange (GEF) assay was used to test whether the TrioGEFD2-binding aptamers could inhibit the catalytic activity of TrioGEFD2 towards RhoA. For this purpose, the aptamers TRIAPα, TRIAPβ and TRIAPγ (including the Trx gene) were excised from pEG202 as EcoRI/NotI fragments and cloned into pGEX4T1 EcoRI/NotI. The aptamers were then expressed and purified from bacteria as GST fusion proteins, using standard procedures (Smith and Johnson, 1988). GTPase-GST fusion proteins were prepared, loaded with [^3H]GDP and the guanine nucleotide release assays were performed as described (Debant et al., 1996), using recombinant GST-TrioGEFD2 (a.a. 1848-2298), TrioDH2 (a.a. 1848-2096). For each point, 0.3 μM GTPase was mixed with or without 0.4 μM GEF in presence of non-labeled GTP, and the reaction mix was filtered after 0 min and 15 mm reaction at 25° C. The catalytic activity of TrioGEFD2 was thus measured by the decrease of the GTPase-associated radioactivity. The results are expressed as the ratio “exchange after 15 min over exchange after 0 min” (% bound [^3H]GDP-RhoA). To measure the effect of the aptamers on the exchange activity, a 20-fold molar excess of GST-TRIAPs was pre-incubated with GEFD2 (or GEFD1) for 30 min on ice before the exchange assay was carried out. For each experiment, data were obtained in triplicate. […]

GEFD2 domain of Kalirin = biological target: T2, GEFD2 domain of Kalirin (Rattus norvegicus, UniProt P97924); assay: Binding specificity of aptamers in yeast; design: key to Binding in yeast: +++^1 and +^1 represent respectively a full and a partial (see FIG. 1) binding capacity; +++^1 and +^1 represent respectively a full and a partial (see FIG. 1) binding capacity; −−^1 represents a lack of binding
T2 construct: GEFD2 domain of Kalirin (a.a. 1640-1980); expressed in transfected cells; host or cells: yeast
Excerpt: Trx represents the thioredoxin protein with no inserted peptide.
In order to identify specific inhibitors of TrioGEFD2, a recently developed strategy was used, this strategy being derived from the yeast two hybrid system, where the cDNA library of preys has been replaced by a combinatorial library of short peptides (20 amino acids) in fusion with the bacterial protein thioredoxin A (Colas et al., 1996). This strategy has been successfully used to isolate specific inhibitors of the cyclin-dependent kinases (Cdks), the cell cycle transcription factor E2F, or the viral HPV16 E6 oncoprotein and HBEV core protein (Colas et al., 1996; Butz et al., 2001; Fabrizzio et al., 1999; Geyer et al., 2000). The TrioGEFD2 bait was constructed as follows: plasmid pMTHATrio1848-2298 (Bellanger et al., 1998) was digested with EcoRI/XhoI and the insert cloned in pEG202EcoRI/XhoI to generate the bait pEG202TroGEFD2. Yeast strain EGY048 (Colas et al., 1996) was transformed with pEG202TrioGEFD2 and subsequently with the library of Thioredoxin constrained aptamers according to standard procedures (Ito et al., 1983). After transformation, cells were allowed to recover for 4 hours in galactose containing medium before plating on selective galactose medium. Of the 2×10^6 screened colonies, those growing in the selective medium were recovered and retested for interaction. […] Binding specificity was investigated by screening for interaction with the following baits: TrioDH2 (a.a. 1848-2096), TrioPH2 (a.a. 2107-2223), TrioGEFD1 (a.a. 1232-1629), Dbl (a.a. 498-826), Vav (ala. 172-598) (Zhang et al, 1994), GEFD2 domain of Kalirin (a.a. 1640-1980)(Penzes et al., 2001), p115RhoGEF (a.a. 391-870)(Wells et al, 2002) and PDZRhoGEF (a.a. 964-1362) (Fukuhara et al., 1999). None of these aptamers interacted with other RhoGEF members such as Dbl, Vav, and the RhoA-specific GEFs p115RhoGEF and PDZRhoGEF.

B1: TRIAPα: aptamer of 154 amino acids: variable region of 42 amino acids inserted into the thioredoxin protein; tested as GST fusion (protein)
chain: MSDKIIHLTDDSFDTDVLKADGAILVDFWAEWCGPAREGADGAICGYNLATLVMLGPSERVFCPLCEPCSSDIYELMGPCKMIAPILDEIADEYQGKLTVAKLNIDQNPGTAPKYGIRGIPTLLLFKNGEVASATKVGALSKGQLKEFLDANLA
TrioGEFD1
  Effect on TrioGEFD1 exchange activity on RhoG: has no effect
TrioGEFD1; listed as GST-TRIAPα
  Effect on TrioGEFD1 exchange activity on RhoG: did not block
TrioGEFD1; RhoGEF TrioDH1PH1
  in vitro GEF assay (inhibition): −−^2
GEFD2 domain of Kalirin; RhoGEF KalirinDH2PH2
  Binding in yeast: +^1
GEFD2 domain of Kalirin; growth on selective medium
  Binding to the second RhoGEF domain of Kalirin in yeast: weakly interacts; also recorded: interacted weakly
